Earlier results on two substances are cited in publication PMC4884208.

What is called pKa is the negative logarithm of the acid dissociation constant.

Assay in all cases: UV-vis
Data set [1] relates to Tyr113.
Data set [2] has as its system Tyr117.
The subject of data set [3] is Tyr22.
Data set [4] deals with Tyr25.
Data set [5] concerns Tyr28.
Data set [6] deals with Tyr52.
The subject of data set [7] is Tyr73.
The test system of data set [8] is Tyr75.
Data set [9] deals with Tyr103 (UniProt position 122, KVGINYWLAHK). Conditions: 25.0 C, 0.5 M Gdn-HCl.
Data set [10] concerns the target Tyr18 (UniProt position 37, KDLKGYGGVSL). To be noted: 25.0 C, 0.5 M Gdn-HCl.
Data set [11] addresses Tyr36 (UniProt position 55, FHTSGYDTQAI). Conditions: 25.0 C, 0.5 M Gdn-HCl.
For data set [12], the target named is Tyr50 (UniProt position 69, NDSTEYGLFQI). Conditions: 25.0 C, 0.5 M Gdn-HCl.

For “Vipoxin neurotoxic phospholipase A2 (basic PLA2 subunit of vipoxin) (Vipera ammodytes meridionalis (inferred; organism not stated in the article))”, the pKa in data set [1] is reported as 12.17; in data set [2], 10.45; in data set [3], 10.45; in [4] it was 13.23; in data set [5], 12.17; in data set [6] it was 12.17. For the same substance, the pKa in [7] is listed as 13.23; in data set [8] it was 10.45.
On to alpha-lactalbumin (Bos taurus), for which the pKa in data set [9] (alkaline-denatured (D) state) is 10.3; in [9] (native (N) state), 10.5; in [10] (alkaline-denatured (D) state), 10.3; in data set [10] (native (N) state), 11.8; in data set [11] (alkaline-denatured (D) state), 10.3; in data set [11] (native (N) state), 11.8. Also, the pKa is 10.3 in data set [12] (alkaline-denatured (D) state) and 12.7 in data set [12] (native (N) state).
